Results on 18 substances are retold here after IntAct's records for PubMed 31515488.

Some targets named below: hem1_human ALAS1 (UniProt P13196); erep1_human ENTREP1 (UniProt Q15884); pdli7_human PDLIM7 (UniProt Q9NR12); hnrl1_human HNRNPUL1 (UniProt Q9BUJ2); fxl18_human FBXL18 (UniProt Q96ME1); mtus2_human MTUS2 (UniProt Q5JR59); txnd5_human TXNDC5 (UniProt Q8NBS9); TSC22D4 (UniProt Q9Y3Q8); cep63_human CEP63 (UniProt Q96MT8); mare1_human MAPRE1 (UniProt Q15691); sdcb1_human SDCBP (UniProt O00560); ut14c_human UTP14C (UniProt Q5TAP6); prp31_human PRPF31 (UniProt Q8WWY3); lmo4_human LMO4 (UniProt P61968); gt253_human CERCAM (UniProt Q5T4B2); vtnc_human VTN (UniProt P04004).

In another test the target is T1, fsd2_human FSD2 (UniProt A1L4K1).
T1 sequence: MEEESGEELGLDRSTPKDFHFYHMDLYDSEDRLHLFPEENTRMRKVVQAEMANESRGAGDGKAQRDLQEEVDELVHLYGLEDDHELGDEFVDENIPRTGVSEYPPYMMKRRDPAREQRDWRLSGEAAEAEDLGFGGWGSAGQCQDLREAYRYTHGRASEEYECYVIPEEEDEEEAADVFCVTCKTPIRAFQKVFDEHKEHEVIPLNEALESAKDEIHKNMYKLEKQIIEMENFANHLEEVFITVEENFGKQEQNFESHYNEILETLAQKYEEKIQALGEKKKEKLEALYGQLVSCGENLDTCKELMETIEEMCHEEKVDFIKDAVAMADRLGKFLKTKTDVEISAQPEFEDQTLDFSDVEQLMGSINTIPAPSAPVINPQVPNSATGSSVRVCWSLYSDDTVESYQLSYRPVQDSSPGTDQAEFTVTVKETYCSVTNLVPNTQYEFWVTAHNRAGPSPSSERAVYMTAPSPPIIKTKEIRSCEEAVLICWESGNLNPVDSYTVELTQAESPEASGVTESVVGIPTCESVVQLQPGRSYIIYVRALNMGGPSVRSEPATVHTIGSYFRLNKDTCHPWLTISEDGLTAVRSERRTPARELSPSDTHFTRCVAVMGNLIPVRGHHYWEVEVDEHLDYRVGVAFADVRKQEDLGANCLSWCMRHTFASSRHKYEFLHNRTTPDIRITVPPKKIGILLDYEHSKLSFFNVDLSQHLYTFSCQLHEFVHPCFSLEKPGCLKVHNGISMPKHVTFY

The next test deals with T2, goga2_human GOLGA2 (UniProt Q08379).
T2 sequence: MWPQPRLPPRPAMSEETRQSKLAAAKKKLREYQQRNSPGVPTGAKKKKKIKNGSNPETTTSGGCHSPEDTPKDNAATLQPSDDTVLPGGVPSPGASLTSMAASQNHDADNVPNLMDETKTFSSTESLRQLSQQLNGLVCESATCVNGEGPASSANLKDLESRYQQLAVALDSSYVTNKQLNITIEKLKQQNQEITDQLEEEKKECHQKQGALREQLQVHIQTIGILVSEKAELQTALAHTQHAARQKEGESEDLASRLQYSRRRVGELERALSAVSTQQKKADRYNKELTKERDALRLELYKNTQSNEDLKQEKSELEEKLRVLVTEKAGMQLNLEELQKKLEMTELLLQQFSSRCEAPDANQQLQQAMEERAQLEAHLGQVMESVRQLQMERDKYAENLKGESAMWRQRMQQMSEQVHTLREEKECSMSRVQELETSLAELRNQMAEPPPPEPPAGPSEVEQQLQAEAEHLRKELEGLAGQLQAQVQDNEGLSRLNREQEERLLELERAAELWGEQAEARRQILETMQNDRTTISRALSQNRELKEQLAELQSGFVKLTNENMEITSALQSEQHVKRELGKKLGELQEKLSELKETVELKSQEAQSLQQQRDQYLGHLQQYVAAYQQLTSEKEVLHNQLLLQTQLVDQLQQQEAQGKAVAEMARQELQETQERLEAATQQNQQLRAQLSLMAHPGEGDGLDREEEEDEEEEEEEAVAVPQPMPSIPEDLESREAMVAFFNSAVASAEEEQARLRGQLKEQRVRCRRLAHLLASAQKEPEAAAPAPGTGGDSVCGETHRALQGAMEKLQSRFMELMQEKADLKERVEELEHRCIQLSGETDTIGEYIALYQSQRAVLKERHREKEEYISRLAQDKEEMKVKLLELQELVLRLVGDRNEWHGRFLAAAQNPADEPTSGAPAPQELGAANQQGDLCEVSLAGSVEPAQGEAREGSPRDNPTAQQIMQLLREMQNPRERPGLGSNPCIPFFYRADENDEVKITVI

Another test addresses T3, mycd_human MYOCD (UniProt Q8IZQ8).
T3 sequence: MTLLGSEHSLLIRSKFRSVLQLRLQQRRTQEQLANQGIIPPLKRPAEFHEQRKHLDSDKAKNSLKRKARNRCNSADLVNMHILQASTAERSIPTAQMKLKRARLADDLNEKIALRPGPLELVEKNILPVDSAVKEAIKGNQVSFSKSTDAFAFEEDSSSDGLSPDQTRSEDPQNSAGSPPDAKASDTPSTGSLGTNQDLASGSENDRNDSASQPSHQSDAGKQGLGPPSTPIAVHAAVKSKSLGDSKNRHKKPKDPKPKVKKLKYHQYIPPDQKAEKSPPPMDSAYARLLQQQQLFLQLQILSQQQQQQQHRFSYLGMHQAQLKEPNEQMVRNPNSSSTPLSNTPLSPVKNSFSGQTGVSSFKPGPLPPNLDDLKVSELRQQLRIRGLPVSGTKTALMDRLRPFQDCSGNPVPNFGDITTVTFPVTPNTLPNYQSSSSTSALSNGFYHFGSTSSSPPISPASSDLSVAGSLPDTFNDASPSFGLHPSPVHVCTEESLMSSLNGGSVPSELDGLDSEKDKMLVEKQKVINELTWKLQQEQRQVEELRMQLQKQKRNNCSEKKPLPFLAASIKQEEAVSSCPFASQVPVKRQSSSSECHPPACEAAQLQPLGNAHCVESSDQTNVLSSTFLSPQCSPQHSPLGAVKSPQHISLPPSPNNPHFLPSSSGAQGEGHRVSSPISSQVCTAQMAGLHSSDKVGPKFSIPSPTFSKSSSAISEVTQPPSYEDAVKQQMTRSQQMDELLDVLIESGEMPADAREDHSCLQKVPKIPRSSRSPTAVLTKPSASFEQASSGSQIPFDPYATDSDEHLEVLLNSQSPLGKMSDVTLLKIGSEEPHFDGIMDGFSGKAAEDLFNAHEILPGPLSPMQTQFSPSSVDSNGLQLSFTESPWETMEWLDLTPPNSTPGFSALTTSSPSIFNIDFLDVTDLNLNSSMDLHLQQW

ut14c_human UTP14C, sequence (Q5TAP6 whole entry): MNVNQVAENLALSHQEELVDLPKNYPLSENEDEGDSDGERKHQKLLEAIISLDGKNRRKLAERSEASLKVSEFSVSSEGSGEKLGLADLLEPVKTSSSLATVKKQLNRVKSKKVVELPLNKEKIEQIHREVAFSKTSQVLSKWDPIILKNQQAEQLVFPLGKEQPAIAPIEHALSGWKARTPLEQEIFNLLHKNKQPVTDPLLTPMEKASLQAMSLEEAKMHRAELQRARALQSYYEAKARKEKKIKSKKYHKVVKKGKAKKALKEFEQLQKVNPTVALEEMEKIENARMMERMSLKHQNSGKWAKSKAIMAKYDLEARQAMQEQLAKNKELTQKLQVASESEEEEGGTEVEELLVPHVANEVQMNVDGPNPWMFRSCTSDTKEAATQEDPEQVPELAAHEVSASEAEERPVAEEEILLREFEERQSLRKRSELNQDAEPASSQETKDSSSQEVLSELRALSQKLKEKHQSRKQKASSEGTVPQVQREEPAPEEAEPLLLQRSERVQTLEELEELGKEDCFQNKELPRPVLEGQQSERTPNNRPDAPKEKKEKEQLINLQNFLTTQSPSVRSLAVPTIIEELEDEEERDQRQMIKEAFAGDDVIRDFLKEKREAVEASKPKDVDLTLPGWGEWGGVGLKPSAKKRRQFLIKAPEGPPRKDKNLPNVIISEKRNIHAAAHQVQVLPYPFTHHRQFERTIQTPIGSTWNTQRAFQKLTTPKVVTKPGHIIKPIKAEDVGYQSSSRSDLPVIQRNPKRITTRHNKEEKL
fxl18_human FBXL18, sequence (Q96ME1 whole entry): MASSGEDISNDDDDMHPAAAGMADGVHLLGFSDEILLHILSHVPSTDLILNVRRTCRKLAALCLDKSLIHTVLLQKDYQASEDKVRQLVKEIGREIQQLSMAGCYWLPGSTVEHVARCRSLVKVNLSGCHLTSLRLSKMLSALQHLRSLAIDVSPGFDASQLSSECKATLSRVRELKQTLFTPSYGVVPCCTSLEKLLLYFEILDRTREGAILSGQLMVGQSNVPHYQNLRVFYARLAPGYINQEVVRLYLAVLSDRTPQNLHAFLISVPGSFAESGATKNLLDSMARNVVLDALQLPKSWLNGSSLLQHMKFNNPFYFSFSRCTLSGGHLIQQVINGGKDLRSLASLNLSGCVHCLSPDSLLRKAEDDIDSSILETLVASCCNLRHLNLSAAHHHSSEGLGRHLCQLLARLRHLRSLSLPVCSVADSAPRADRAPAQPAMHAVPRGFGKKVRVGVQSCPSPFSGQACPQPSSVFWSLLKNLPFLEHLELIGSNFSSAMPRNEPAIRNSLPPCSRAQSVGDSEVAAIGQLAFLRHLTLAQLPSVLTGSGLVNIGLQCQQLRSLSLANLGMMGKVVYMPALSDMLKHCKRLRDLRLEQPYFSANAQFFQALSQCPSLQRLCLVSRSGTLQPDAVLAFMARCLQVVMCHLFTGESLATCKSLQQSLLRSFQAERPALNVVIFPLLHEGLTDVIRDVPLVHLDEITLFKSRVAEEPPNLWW
lmo4_human LMO4, sequence (P61968 whole entry): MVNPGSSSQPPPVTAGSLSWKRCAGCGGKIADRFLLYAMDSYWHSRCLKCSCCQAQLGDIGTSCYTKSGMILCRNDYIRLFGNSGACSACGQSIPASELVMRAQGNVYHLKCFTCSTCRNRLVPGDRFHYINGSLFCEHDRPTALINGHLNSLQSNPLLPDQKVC
mare1_human MAPRE1, sequence (Q15691 whole entry): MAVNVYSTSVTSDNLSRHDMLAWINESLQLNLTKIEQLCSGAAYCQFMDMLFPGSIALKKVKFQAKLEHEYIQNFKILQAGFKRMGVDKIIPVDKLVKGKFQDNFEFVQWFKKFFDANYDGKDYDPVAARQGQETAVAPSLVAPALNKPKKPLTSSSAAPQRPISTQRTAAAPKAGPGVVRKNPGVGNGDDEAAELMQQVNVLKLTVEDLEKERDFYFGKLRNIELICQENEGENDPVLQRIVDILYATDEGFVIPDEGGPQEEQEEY
prp31_human PRPF31, sequence (Q8WWY3 whole entry): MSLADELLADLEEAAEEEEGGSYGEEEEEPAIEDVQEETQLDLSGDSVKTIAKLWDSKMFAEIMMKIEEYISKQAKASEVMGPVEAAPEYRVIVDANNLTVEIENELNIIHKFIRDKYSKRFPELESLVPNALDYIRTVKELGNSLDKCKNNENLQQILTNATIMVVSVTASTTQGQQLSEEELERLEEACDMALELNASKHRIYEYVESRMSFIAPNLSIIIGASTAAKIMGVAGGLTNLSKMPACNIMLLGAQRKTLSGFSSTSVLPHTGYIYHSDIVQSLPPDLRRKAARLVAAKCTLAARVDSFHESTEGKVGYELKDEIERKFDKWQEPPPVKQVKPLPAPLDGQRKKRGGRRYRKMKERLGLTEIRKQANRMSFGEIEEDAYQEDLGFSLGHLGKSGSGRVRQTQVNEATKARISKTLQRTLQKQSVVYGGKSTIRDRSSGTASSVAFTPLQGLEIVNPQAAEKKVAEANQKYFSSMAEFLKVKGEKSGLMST
sdcb1_human SDCBP, sequence (O00560 whole entry): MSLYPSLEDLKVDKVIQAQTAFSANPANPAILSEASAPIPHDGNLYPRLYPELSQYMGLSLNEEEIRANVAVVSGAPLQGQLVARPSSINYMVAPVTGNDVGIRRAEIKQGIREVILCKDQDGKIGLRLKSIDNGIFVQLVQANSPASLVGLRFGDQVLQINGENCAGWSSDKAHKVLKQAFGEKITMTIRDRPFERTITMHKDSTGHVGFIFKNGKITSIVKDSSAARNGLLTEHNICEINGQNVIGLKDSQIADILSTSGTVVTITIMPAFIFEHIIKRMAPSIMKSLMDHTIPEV
txnd5_human TXNDC5, sequence (Q8NBS9 whole entry): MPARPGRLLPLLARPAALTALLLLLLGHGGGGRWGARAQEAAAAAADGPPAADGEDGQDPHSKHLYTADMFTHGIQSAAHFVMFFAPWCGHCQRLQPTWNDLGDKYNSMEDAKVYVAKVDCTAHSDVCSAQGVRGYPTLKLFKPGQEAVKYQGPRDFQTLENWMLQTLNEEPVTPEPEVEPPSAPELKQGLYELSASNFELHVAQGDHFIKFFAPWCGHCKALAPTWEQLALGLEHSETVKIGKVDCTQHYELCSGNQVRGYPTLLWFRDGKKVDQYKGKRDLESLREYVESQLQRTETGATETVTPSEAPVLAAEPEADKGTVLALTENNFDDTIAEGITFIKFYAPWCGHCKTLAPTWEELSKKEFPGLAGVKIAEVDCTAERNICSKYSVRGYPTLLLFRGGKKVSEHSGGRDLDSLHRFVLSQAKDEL
cep63_human CEP63, sequence (Q96MT8 whole entry): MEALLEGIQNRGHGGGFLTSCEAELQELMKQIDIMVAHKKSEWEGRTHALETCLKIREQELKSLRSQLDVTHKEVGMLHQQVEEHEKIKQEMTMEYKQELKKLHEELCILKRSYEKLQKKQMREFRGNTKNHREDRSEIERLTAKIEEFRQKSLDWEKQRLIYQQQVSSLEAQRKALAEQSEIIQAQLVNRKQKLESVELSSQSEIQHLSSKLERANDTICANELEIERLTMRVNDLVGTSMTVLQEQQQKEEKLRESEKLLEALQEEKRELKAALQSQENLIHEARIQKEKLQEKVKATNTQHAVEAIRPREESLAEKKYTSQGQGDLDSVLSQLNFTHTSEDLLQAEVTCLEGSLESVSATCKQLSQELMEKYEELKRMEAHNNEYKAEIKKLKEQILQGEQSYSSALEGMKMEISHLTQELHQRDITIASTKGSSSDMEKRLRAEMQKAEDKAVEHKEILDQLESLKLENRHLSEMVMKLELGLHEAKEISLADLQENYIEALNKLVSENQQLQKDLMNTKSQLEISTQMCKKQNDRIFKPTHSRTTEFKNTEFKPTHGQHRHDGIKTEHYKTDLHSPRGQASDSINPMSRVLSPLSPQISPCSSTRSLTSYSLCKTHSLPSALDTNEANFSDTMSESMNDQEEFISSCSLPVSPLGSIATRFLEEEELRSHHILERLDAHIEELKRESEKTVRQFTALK
erep1_human ENTREP1, sequence (Q15884 whole entry): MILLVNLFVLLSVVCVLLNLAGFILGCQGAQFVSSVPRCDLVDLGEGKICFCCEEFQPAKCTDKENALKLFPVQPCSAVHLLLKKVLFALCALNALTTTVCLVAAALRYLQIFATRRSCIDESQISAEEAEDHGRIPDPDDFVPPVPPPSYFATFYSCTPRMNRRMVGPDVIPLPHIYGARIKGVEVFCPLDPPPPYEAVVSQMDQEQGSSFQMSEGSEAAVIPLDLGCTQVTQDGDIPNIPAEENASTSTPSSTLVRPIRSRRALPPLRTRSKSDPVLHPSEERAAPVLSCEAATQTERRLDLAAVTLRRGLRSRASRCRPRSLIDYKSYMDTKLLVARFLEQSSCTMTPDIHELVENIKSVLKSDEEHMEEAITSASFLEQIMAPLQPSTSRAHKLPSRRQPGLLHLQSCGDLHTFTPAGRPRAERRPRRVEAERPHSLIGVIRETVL
TSC22D4, sequence (Q9Y3Q8 whole entry): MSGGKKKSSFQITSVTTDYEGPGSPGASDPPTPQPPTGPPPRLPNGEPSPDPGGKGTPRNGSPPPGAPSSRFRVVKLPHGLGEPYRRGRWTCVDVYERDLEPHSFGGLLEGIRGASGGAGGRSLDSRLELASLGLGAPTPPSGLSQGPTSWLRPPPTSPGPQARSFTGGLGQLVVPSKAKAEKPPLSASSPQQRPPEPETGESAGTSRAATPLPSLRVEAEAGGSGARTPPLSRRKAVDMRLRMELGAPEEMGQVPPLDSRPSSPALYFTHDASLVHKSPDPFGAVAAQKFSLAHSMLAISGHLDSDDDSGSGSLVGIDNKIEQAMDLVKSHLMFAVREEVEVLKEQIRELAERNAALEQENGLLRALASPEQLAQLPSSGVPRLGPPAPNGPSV

As for “Parafibromin (Homo sapiens) (from UniProt Q6P1J9) R156H”, the “effect of a mutation on the interaction” value with hem1_human ALAS1, with fsd2_human FSD2 and with goga2_human GOLGA2 was “with no effect” each time.
As to “NEDD4-like E3 ubiquitin-protein ligase WWP2 (Homo sapiens), O00308 R215W”, the “effect of a mutation on the interaction” value with erep1_human ENTREP1, with pdli7_human PDLIM7, with hnrl1_human HNRNPUL1 and with fxl18_human FBXL18 was “with no effect” throughout.
As for “Zinc finger protein 224 (Homo sapiens), Q9NZL3 Q447H”, the “effect of a mutation on the interaction” value with mtus2_human MTUS2 is listed as “with no effect”.
In the case of “Parafibromin (Homo sapiens) (from UniProt Q6P1J9) R147C”, the “effect of a mutation on the interaction” value with hem1_human ALAS1, with fsd2_human FSD2 and in the test with goga2_human GOLGA2 was “with no effect” in each case.
For the substance “Mannose-1-phosphate guanylyltransferase catalytic subunit beta (Homo sapiens), Q9Y5P6 R158Q”, the “effect of a mutation on the interaction” value with txnd5_human TXNDC5 was “with no effect”.
Turning to “Zinc finger protein 224 (Homo sapiens), Q9NZL3 K640E”, in the test with mtus2_human MTUS2, the “effect of a mutation on the interaction” value is recorded as “with no effect”.
As for “Mannose-1-phosphate guanylyltransferase catalytic subunit beta (Homo sapiens), Q9Y5P6 H126D”, the “effect of a mutation on the interaction” value in the test with txnd5_human TXNDC5 is listed as “with no effect”.
Turning to “Nuclear receptor-binding protein (Homo sapiens), Q9UHY1 V365I”, the “effect of a mutation on the interaction” value with TSC22D4 is given as “with no effect”.
Still for that read-out and setting: the entry for “Nuclear receptor-binding protein (Homo sapiens), Q9UHY1 P432L” is “with no effect”.
Turning to “NEDD4-like E3 ubiquitin-protein ligase WWP2 (Homo sapiens), O00308 H401R”, the “effect of a mutation on the interaction” value in the test with erep1_human ENTREP1, with pdli7_human PDLIM7, with hnrl1_human HNRNPUL1 and with fxl18_human FBXL18 was “with no effect” each time.
Consider “Histone-lysine N-methyltransferase EZH2 (Homo sapiens), Q15910-2 R288Q”, for which, in the test with cep63_human CEP63, the “effect of a mutation on the interaction” value was “with no effect”.
In the case of Myomegalin (Homo sapiens), Q5VU43 M783I, the “effect of a mutation on the interaction” value with mare1_human MAPRE1, with sdcb1_human SDCBP, with ut14c_human UTP14C, in the test with prp31_human PRPF31 and with lmo4_human LMO4 was “with no effect” in each case.
With “Golgi-associated PDZ and coiled-coil motif-containing protein (Homo sapiens) (from UniProt Q9HD26) G53E”, the “effect of a mutation on the interaction” value with mycd_human MYOCD, in the test with gt253_human CERCAM and in the test with vtnc_human VTN was “disrupting interaction strength” in each case.
As to “Histone-lysine N-methyltransferase EZH2 (Homo sapiens), Q15910-2 N640K”, the “effect of a mutation on the interaction” value in the test with cep63_human CEP63 was “with no effect”.
Regarding Myomegalin (Homo sapiens), Q5VU43 E391A, the “effect of a mutation on the interaction” value with mare1_human MAPRE1, with sdcb1_human SDCBP, in the test with ut14c_human UTP14C, with prp31_human PRPF31 and in the test with lmo4_human LMO4 was “with no effect” throughout.
For “Parafibromin (Homo sapiens) (from UniProt Q6P1J9) L95P”, the “effect of a mutation on the interaction” value in the test with hem1_human ALAS1, with fsd2_human FSD2 and with goga2_human GOLGA2 was “disrupting interaction strength” each time.
In the case of Myomegalin (Homo sapiens), Q5VU43 I612T, the “effect of a mutation on the interaction” value in the test with mare1_human MAPRE1, in the test with sdcb1_human SDCBP, with ut14c_human UTP14C, in the test with prp31_human PRPF31 and in the test with lmo4_human LMO4 was “with no effect” each time.
Consider “NEDD4-like E3 ubiquitin-protein ligase WWP2 (Homo sapiens), O00308 R178Q”, for which, in the test with fxl18_human FBXL18, the “effect of a mutation on the interaction” value is reported as “with no effect”.
